The target in assay [1] is T1, T7-SOCS6 (UniProt Q9JLY0 1-533).
T1 sequence (looked up): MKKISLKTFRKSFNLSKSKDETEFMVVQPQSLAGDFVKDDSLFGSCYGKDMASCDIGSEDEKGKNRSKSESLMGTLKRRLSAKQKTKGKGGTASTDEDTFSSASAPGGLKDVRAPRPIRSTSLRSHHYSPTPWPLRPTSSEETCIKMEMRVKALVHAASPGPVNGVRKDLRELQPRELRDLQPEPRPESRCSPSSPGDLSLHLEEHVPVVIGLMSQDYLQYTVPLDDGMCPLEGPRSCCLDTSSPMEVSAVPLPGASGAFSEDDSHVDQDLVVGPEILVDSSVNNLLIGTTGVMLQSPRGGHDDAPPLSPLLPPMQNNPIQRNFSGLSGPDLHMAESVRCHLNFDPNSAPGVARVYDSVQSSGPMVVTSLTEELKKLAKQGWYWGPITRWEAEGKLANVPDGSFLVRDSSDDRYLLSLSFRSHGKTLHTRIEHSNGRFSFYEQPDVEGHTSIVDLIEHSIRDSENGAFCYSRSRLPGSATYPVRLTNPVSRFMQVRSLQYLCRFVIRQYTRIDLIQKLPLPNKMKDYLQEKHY
Briefly: pull-down.

The target in assay [2] is T2, T7-SOCS7 WT (UniProt Q8VHQ2 1-579).
T2 sequence (looked up): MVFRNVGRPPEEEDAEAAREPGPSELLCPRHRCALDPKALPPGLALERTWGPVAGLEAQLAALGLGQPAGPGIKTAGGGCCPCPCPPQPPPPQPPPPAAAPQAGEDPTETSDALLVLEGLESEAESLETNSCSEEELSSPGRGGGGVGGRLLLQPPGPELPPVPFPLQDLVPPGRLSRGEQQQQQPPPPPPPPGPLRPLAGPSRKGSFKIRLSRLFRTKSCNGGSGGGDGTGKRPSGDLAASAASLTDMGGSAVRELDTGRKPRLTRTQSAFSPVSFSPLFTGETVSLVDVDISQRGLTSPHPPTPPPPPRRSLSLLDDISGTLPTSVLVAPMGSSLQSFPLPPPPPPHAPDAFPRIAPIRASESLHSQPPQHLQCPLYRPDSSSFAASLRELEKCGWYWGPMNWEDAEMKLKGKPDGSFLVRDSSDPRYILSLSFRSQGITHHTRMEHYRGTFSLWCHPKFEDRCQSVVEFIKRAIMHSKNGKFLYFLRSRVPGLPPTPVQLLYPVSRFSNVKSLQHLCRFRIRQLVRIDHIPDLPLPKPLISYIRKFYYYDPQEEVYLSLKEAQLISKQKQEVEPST
The assay is described as follows: pull-down.

Consider one molecule from publication PMC3851519 (Developmental cell, 2013).

B1: tyrosine-phosphorylated Dab1-EGFP (natural protein, UniProt P97318 1-588, looked up)
chain: MSTETELQVAVKTSAKKDSRKKGQDRSEATLIKRFKGEGVRYKAKLIGIDEVSAARGDKLCQDSMMKLKGVVAGARSKGEHKQKIFLTISFGGIKIFDEKTGALQHHHAVHEISYIAKDITDHRAFGYVCGKEGNHRFVAIKTAQAAEPVILDLRDLFQLIYELKQREELEKKAQKDKQCEQAVYQTILEEDVEDPVYQYIVFEAGHEPIRDPETEENIYQVPTSQKKEGVYDVPKSQPNSQPLEDFESRFAAATPNRNLSMDFDELLEATKVSAVTQLELFGDMSTPPDITSPPTPATPGDAFLPSSSQTLPGSADVFGSMSFGTAAVPSGYVAMGAVLPSFWGQQPLVQQQIAMGAQPPVAQVIPGAQPIAWGQPGLFPATQQAWPTVAGQFPPAAFMPTQTVMPLAAAMFQGPLTPLATVPGTNDSARSSPQSDKPRQKMGKESFKDFQMVQPPPVPSRKPDQPSLTCTSEAFSSYFNKVGVAQDTDDCDDFDISQLNLTPVTSTTPSTNSPPTPAPRQSSPSKSSASHVSDPTADDIFEEGFESPSKSEEQEAPDGSQASSTSDPFGEPSGEPSGDNISPQDGS
modifications: phosphotyrosine (sites not given; phosphorylated by co-transfected Fyn)
On to B1, for which the “fold pY.Dab1 bound against SOCS4, 5 or CISH” value in assay [1] and in assay [2] was approximately 10 fold each time.
